Data from patent US20210363265A1 (INVENRA, published 2021).
Residue numbers refer to the chain shown, from its start.

Key:
[1] = biological target: T1, OX40 on T cells (primary naive CD4+ T cells; Jurkat/OX40 reporter cells) (UniProt P43489 29-277, limits assumed); test: cell-based or functional assay
T1 sequence (looked up): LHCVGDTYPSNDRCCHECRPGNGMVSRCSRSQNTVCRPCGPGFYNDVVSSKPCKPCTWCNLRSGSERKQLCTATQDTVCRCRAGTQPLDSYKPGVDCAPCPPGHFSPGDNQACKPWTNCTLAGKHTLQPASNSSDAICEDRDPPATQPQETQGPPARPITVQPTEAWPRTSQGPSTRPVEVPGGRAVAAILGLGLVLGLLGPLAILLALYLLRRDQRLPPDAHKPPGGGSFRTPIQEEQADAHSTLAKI

OX40: 66-214-Fc = biological target: T2, OX40: 66-214-Fc (human); test: BLI, OX40-Fc fragment immobilized on sensor
T2 construct: Immobilized on the BLI sensor; also called first truncation

OX40: 108-214-Fc = biological target: T3, OX40: 108-214-Fc (human); test: BLI, OX40-Fc fragment immobilized on sensor
T3 construct: Immobilized on the BLI sensor

OX40: 127-214-Fc = biological target: T4, OX40: 127-214-Fc (human); test: BLI, OX40-Fc truncation immobilized on sensor
T4 construct: Immobilized on the BLI sensor
T4 sequence (chain, as listed by the source): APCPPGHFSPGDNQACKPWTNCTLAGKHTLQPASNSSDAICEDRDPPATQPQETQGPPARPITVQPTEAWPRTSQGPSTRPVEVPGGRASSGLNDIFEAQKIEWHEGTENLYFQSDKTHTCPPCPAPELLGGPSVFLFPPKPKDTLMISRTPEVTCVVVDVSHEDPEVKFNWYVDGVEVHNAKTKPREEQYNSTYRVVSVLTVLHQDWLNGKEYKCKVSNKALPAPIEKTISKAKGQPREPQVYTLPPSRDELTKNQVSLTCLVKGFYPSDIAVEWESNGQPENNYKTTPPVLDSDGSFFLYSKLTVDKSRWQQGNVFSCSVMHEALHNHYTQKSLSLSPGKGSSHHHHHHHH

T3 sequence (chain, as listed by the source): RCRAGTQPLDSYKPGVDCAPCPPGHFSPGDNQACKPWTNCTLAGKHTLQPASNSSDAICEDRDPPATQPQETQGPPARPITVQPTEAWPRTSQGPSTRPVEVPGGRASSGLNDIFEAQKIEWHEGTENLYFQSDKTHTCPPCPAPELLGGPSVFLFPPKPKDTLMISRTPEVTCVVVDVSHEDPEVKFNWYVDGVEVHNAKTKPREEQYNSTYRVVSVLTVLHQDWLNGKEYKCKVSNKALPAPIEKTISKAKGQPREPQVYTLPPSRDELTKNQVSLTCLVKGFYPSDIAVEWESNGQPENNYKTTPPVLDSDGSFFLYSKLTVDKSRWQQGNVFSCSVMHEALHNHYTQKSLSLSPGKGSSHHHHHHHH
T2 sequence (chain, as listed by the source): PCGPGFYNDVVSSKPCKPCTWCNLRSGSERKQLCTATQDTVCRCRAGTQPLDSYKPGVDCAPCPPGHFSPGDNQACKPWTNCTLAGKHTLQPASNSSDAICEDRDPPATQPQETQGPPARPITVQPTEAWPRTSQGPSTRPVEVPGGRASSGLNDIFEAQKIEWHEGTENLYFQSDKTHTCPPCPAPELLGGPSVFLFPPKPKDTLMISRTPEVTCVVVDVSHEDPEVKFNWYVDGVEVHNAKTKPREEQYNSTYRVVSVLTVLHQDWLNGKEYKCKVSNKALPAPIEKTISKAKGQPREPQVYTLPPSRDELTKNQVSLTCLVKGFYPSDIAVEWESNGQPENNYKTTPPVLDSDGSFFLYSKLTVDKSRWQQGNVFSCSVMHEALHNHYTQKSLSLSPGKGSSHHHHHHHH

B1: OX40:24-24×11 (bispecific antibody)
chain 1: not shown
chain 2: EVQLVESGGGLVQPGGSLRLSCAASGFTFLSYYIHWVRQAPGKGLEWVAYIDPYSGGTDYADSVKGRFTISADTSKNTAYLQMNSLRAEDTAVYYCARVGLSFYAQEPVLDYWGQGTLVTVSSASPREPQVYTDPPSRDELTKNQVSLTCLVKGFYPSDIAVEWESNGQPENNYKTTPPVLDSDGSFFLYSKLTVDKSRWQQGNVFSCSVMHEALHNHYTQKSLSLSGEC
chain 3: DIQMTQSPSSLSASVGDRVTITCRASQSVSSAVAWYQQKPGKAPKLLIYSASSLYSGVPSRFSGSRSGTDFTLTISSLQPEDFATYYCQQYTSHPGTFGQGTKVEIKRTVAAPSVFIFPPSDEQLKSGTASVVCLLNNFYPREAKVQWKVDNALQSGNSQESVTEQDSKDSTYSLSSTLTLSKADYEKHKVYACEVTHQGLSSPVTKSFNRGECDKTHTCPPCPAPELLGGPSVFLFPPKPKDTLMISRTPEVTCVVVDVSHEDPEVKFNWYVDGVEVHNAKTKPREEQYNSTYRVVSVLTVLHQDWLNGKEYKCKVSNKALPAPIEKTISKAKGQPREPQVCTLPPSREEMTKNQVSLSCAVKGFYPSDIAVEWESNGQPENNYKTTPPVLDSDGSFFLVSKLTVDKSRWQQGNVFSCSVMHEALHNHYTQKSLSLSPGK
chain 4: EVQLVESGGGLVQPGGSLRLSCAASGFTFSSYVIHWVRQAPGKGLEWVAYIFPYGGTTYYADSVKGRFTISADTSKNTAYLQMNSLRAEDTAVYYCARGYYYVSDRVMDYWGQGTLVTVSSASTKGPSVFPLAPSSKSTSGGTAALGCLVKDYFPEPVTVSWNSGALTSGVHTFPAVLQSSGLYSLSSVVTVPSSSLGTQTYICNVNHKPSNTKVDKKVEPPKSC
antibody concentration at peak T cell proliferation [1]: 10 nM

B2: OX40:24-11×11 (bispecific antibody)
chain 1: not shown
chain 2: B1 chain 4
chain 3: B1 chain 3
chain 4: B1 chain 2
antibody concentration at peak T cell proliferation [1]: < 10 nM

B3: OX40:24-24(WEE)×11 (bispecific antibody)
chain 1: not shown
chain 2: B1 chain 2
chain 3: B1 chain 3
chain 4: B1 chain 4
antibody concentration at peak T cell proliferation [1]: 10 nM

B4: OX40:24(WEE)-11×11 (bispecific antibody)
chain 1: not shown
chain 2: B1 chain 4
chain 3: B1 chain 3
chain 4: B1 chain 2
antibody concentration at peak T cell proliferation [1]: < 10 nM

B5: GSK3174998 (antibody, human IgG1, kappa, V domains shown)
VH: EVKLEESGGGLVQPGGSMKLSCAASGFTFSDAWMDWVRQSPEKGLEWVAEIRSKANNHATYYAESVNGRFTISRDDSKSSVYLQMNSLRAEDTGIYYCTWGEVFYFDYWGQGTTLTVSS
VL: DIQMTQSPSSLSASLGGKVTITCKSSQDINKYIAWYQHKPGKGPRLLIHYTSTLQPGIPSRFSGSGSGRDYSFSISNLEPEDIATYYCLQYDNLLTFGAGTKLELKR
notes: also called Clinical mAB; clinical
binding result (OX40: 66-214-Fc): binds

B6: Tavolixizumab (IgG1-kappa) (antibody, V domains shown)
VH: QVQLQESGPGLVKPSQTLSLTCAVYGGSFSSGYWNWIRKHPGKGLEYIGYISYNGITYHNPSLKSRITINRDTSKNQYSLQLNSVTPEDTAVYYCARYKYDYDGGHAMDYWGQGTLVTVSS
VL: DIQMTQSPSSLSASVGDRVTITCRASQDISNYLNWYQQKPGKAPKLLIYYTSKLHSGVPSRFSGSGSGTDYTLTISSLQPEDFATYYCQQGSALPWTFGQGTKVEIKR
binding result (OX40: 108-214-Fc): binds | binding result (OX40: 127-214-Fc): no binding

B7: Pogalizumab (IgG1-kappa) (antibody, V domains shown)
VH: EVQLVQSGAEVKKPGASVKVSCKASGYTFTDSYMSWVRQAPGQGLEWIGDMYPDNGDSSYNQKFRERVTITRDTSTSTAYLELSSLRSEDTAVYYCVLAPRWYFSVWGQGTLVTVSS
VL: B6 VL with K53R, H55R, Y71F, S92H, A93T, W96P
notes: also called Pagolizumab
binding result (OX40: 108-214-Fc): binds | binding result (OX40: 127-214-Fc): no binding
